Here are results for 5 molecules from publication PMC5947528.

The assay addresses E. coli 3'-phosphoadenosine 5'-phosphosulfate (PAPS) reductase (E. coli) (UniProt P17854).
Chain of UniProt P17854 (P17854 whole entry): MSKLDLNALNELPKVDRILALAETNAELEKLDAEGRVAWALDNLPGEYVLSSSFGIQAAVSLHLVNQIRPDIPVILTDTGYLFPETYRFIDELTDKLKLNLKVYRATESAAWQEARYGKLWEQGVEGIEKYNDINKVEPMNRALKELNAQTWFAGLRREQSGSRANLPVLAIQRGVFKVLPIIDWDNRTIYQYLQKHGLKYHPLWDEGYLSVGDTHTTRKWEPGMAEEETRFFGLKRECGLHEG

B1: Arabidopsis thaliana TrxH3 (enzyme)
chain: MAAEGEVIACHTVEDWTEKLKAANESKKLIVIDFTATWCPPCRFIAPVFADLAKKHLDVVFFKVDVDELNTVAEEFKVQAMPTFIFMKEGEIKETVVGAAKEEIIANLEKHKTVVAAA
Take B1: the Km of PR for the redoxin as electron donor (PAPS reductase assay) was determined as 17.8 µM; the Vmax of PR with the redoxin as electron donor (PAPS reductase assay) came out at 13.2 U mg^-1; the kcat Km^-1 of PR with the redoxin, percent of that with E. coli Trx1 is 154%.

B2: Arabidopsis thaliana TrxH2 (enzyme)
chain: MGGALSTVFGSGEDATAAGTESEPSRVLKFSSSARWQLHFNEIKESNKLLVVDFSASWCGPCRMIEPAIHAMADKFNDVDFVKLDVDELPDVAKEFNVTAMPTFVLVKRGKEIERIIGAKKDELEKKVSKLRA
As to B2, the Km of PR for the redoxin as electron donor (PAPS reductase assay) was determined as 43.1 µM and the kcat Km^-1 of PR with the redoxin, percent of that with E. coli Trx1 was 23%.

B3: human Trx1 (enzyme)
chain: MVKQIESKTAFQEALDAAGDKLVVVDFSATWCGPCKMIKPFFHSLSEKYSNVIFLEVDVDDCQDVASECEVKCMPTFQFFKKGQKVGEFSGANKEKLEATINELV
Take B3: the kcat Km^-1 of PR with the redoxin, percent of that with E. coli Trx1 turned out to be 59%.

B4: Arabidopsis thaliana TrxH1 (enzyme)
chain: MASEEGQVIACHTVETWNEQLQKANESKTLVVVDFTASWCGPCRFIAPFFADLAKKLPNVLFLKVDTDELKSVASDWAIQAMPTFMFLKEGKILDKVVGAKKDELQSTIAKHLA
Take B4: the kcat Km^-1 of PR with the redoxin, percent of that with E. coli Trx1 was found to be 18%.

B5: Arabidopsis thaliana TrxH4 (enzyme)
chain: MAAEEGQVIGCHTNDVWTVQLDKAKESNKLIVIDFTASWCPPCRMIAPIFNDLAKKFMSSAIFFKVDVDELQSVAKEFGVEAMPTFVFIKAGEVVDKLVGANKEDLQAKIVKHTGVTTA
Take B5: the Km of PR for the redoxin as electron donor (PAPS reductase assay) stood at 26.1 µM.
